# Experimental data taken from patent US20220033515A1 (Genentech, published 2022).
# Residue numbers refer to the chain shown, from its start.
# T1: hVEGF-C (human, UniProt P49767 103-227)
# T1 sequence (looked up): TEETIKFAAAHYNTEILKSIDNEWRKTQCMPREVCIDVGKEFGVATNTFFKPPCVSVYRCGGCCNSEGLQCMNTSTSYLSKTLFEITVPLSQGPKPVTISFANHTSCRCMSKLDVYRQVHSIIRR
# T2: hVEGF-D (human, UniProt O43915 93-201)
# T2 sequence (looked up): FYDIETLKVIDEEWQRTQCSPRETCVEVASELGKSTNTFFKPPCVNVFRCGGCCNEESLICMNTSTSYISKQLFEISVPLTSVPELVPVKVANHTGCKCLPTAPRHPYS
# T3: hVEGF109 (human, UniProt P15692 214-315)
# T3 construct: range 8-109; also called VEGF (8-109)
# T3 sequence (looked up): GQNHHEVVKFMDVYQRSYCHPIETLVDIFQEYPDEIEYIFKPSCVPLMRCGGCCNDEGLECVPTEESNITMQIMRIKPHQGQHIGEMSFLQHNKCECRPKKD
# T4: murine VEGF (mVEGF) (murine, UniProt Q00731-2 27-190)
# T4 sequence (looked up): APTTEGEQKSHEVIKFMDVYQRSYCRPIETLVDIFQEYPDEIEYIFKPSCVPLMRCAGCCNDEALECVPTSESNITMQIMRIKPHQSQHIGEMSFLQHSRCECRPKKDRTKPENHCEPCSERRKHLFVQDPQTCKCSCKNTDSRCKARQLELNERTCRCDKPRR
# B1: 4-5 (antibody, V domains shown)
# VH: not shown
# VL: DIQMTQSPSSLSASVGDRVTITCRASQNVGRPVAWYQQKPGKAPKLLIYGGSSLYSGVPSRFSGSGSGTDFTLTISSLQPEDFATYYCQQYGSFGTPPTFGQGTKVEIKR
# B2: bH4 (antibody, V domains shown)
# VH: not shown
# VL: DIQMTQSPSSLSASVGDRVTITCRASQDIRSGSVAWYQQKPGKAPKLLIYWGSYLYSGVPSRFSGSGSGTDFTLTISSLQPEDFATYYCQQHYTTPPTFGQGTKVEIKR
# B3: D1 hIgG (antibody, V domains shown)
# VH: not shown
# VL: DIQMTQSPSSLSASVGDRVTITCRASQNVSKHVAWYQQKPGKAPKLLIYWGSYLYSGVPSRFSGSGSGTDFTLTISSLQPEDFATYYCQQSYSGPPTFGQGTKVEIKR
# notes: also called bD1 IgG; D1 (anti-hDR5/Her2); not shown: rest of the human IgG heavy chain constant region
# B4: bD2 IgG (antibody, V domains shown)
# VH: not shown
# VL: DIQMTQSPSSLSASVGDRVTITCRASQNIRNGGGLAWYQQKPGKAPKLLIYSASFLYSGVPSRFSGSGSGTDFTLTISSLQPEDFATYYCQQHYTTPPTFGQGTKVEIKR
# notes: not shown: rest of the human IgG heavy chain constant region
# B5: H3 Fab (Fab, V domains shown)
# VH: not shown
# VL: B2 VL with R30G, S31L, G52A
# notes: also called bH3 Fab
# B6: bH1 Fab (Fab, V domains shown)
# VH: not shown
# VL: DIQMTQSPSSLSASVGDRVTITCRASQDIPRSISGYVAWYQQKPGKAPKLLIYWGSYLYSGVPSRFSGSGSGTDFTLTISSLQPEDFATYYCQQHYTTPPTFGQGTKVEIKR
# notes: also called bispecific bH1 Fab
# B7: clone 12 (scFv, V domains shown)
# VH: not shown
# VL: DIQMTQSPSSLSASVGDRVTITCRASQDIGGGSVAWYQQKPGKAPKLLIYWGSFLYSGVPSRFSGSGSGTDFTLTISSLQPEDFATYYCQQHYTTPPTFGQGTKVEIK
# B8: clone 27 (scFv, V domains shown)
# VH: not shown
# VL: DIQMTQSPSSLSASVGDRVTITCRASQYVYSTTVAWYQQKPGKAPKLLIYNGSSLYSGVPSRFSGSGSGTDFTLTISSLQPEDFATYYCQQASSAPPTFGQGTKVEIK
# B9: clone 45 (scFv, V domains shown)
# VH: not shown
# VL: B7 VL with G30H, G31S, F54Y
# B10: clone 6 (scFv, V domains shown)
# VH: not shown
# VL: DIQMTQSPSSLSASVGDRVTITCRASQDIWRAVAWYQQKPGKAPKLLIYPASNLYSGVPSRFSGSGSGTDFTLTISSLQPEDFATYYCQQGYYIAPPTFGQGTKVEIK
# B11: clone 75 (scFv, V domains shown)
# VH: not shown
# VL: DIQMTQSPSSLSASVGDRVTITCRASQDIPSIYVAWYQQKPGKAPKLLIYGASYLYSGVPSRFSGSGSGTDFTLTISSLQPEDFATYYCQQRYWVAPPTFGQGTKVEIK
# B12: clone 67 (lower block) (scFv, V domains shown)
# VH: not shown
# VL: DIQMTQSPSSLSASVGDRVTITCRASQDIWRWLAWYQQKPGKAPKLLIYAGSSLYSGVPSRFSGSGSGTDFTLTISSLQPEDFATYYCQQHDQAPPTFGQGTKVEIK
# B13: 3-3 (scFv, V domains shown)
# VH: not shown
# VL: B10 VL with D28Q, A32H, V33L, P50T, A51G, N53S, G91S, Y93W, I94V
# notes: also called c3-3
# B14: H6 (scFv, V domains shown)
# VH: not shown
# VL: DIQMTQSPSSLSASVGDRVTITCRASQYIWNYVAWYQQKPGKAPKLLIYGGSSLYSGVPSRFSGSGSGTDFTLTISSLQPEDFATYYCQQSWWAGPPTFGQGTKVEIK
# B15: 20.49 (Fab, V domains shown)
# VH: not shown
# VL: B6 VL with Q27V, I29L, R31K, I33V, Y57F, Y96F, T98S
# B16: 20.52 (Fab, V domains shown)
# VH: not shown
# VL: B6 VL with S26I, Q27E, D28N, I29L, R31K, S32T, Y57F, Y96F, T97S, T98S
# B17: 20.80 (Fab, V domains shown)
# VH: not shown
# VL: B6 VL with Q27E, R31K, Y57F, Y96F, T97S, T98S
# B18: 20.93 (Fab, V domains shown)
# VH: not shown
# VL: B6 VL with S26V, Q27E, I29L, R31K, S32T, S34T, Y57F, Y96F, T101K
# B19: 35.2 (Fab, V domains shown)
# VH: not shown
# VL: B6 VL with S26I, Q27E, I29L, R31K, S32T, I33V, Y57F, T97S, T98S
# B20: 35.21 (Fab, V domains shown)
# VH: not shown
# VL: B6 VL with I29L, R31K, Y57F, Y96F, T97S, T98S
# B21: 35.25 (Fab, V domains shown)
# VH: not shown
# VL: B6 VL with S26I, D28K, I29V, S32T, S34T, Y57F, T98S
# B22: 35.28 (Fab, V domains shown)
# VH: not shown
# VL: DIQMTQSPSSLSASVGDRVTITCRAIQNIAKTITGYVAWYQQKPGKAPKLLIYWGSFLYSGVPSRFSGSGSGTDFTLTISSLQPEDFATYYCQQHFNSPPKFGQGTKVEIKR
# B23: 35.45 (Fab, V domains shown)
# VH: not shown
# VL: B22 VL with I26S, Q27E, N28D, A30P, I33V, T34S, N97S, K101T
# B24: 35.56 (Fab, V domains shown)
# VH: not shown
# VL: B22 VL with I26V, I29L, A30P, F96Y, N97T, S98I
# B25: 35.61 (Fab, V domains shown)
# VH: not shown
# VL: B22 VL with Q27E, I29L, A30P, T32S, F96Y, N97S, S98T, P99T
# B26: 35.74 (Fab, V domains shown)
# VH: not shown
# VL: B22 VL with N28D, A30P
# B27: 35.87 (Fab, V domains shown)
# VH: not shown
# VL: B22 VL with I26S, A30P, T32S, I33V, T34S, K101T
# B28: 35.95 (Fab, V domains shown)
# VH: not shown
# VL: B6 VL with S26I, Q27E, D28N, I29L, R31K, I33V, Y57F, T98S
# Molecular target: T5, human death receptor 5 (hDR5) (human, UniProt O14763 56-210)
# T5 construct: also called DR5 long; hDR5-1f
# Experiment: equilibrium KD; method and format (Fab or IgG) not given
row,Binder,Kd
1,B1,150 nM

# Molecular target: T6, HER2 extracellular domain (Her2-ECD) (human, UniProt P04626 23-652)
# T6 construct: extracellular domain; also called hHER2 extracellular domain (ECD)
# Experiment: equilibrium KD; method and format (Fab or IgG) not given; HER2, second number of the cell
row,Binder,Kd
1,B2,11 nM

# Molecular target: T1, hVEGF-C
# Experiment: ELISA on immobilised protein
row,Binder,binding result
1,B3,no binding (tested: 100 or 500 nM (text))
2,B4,no binding (tested: 100 or 500 nM (text))

# Molecular target: T2, hVEGF-D
# Experiment: ELISA on immobilised protein
row,Binder,binding result
1,B3,no binding (tested: 100 or 500 nM (text))
2,B4,no binding (tested: 100 or 500 nM (text))

# Molecular target: T7, epidermal growth factor receptor extracellular domain (hEGFR) (human, UniProt P00533 25-645)
# T7 construct: extracellular domain
# Experiment: ELISA on immobilised protein
row,Binder,binding result
1,B3,no binding (tested: 100 or 500 nM (text))
2,B4,no binding (tested: 100 or 500 nM (text))

# Molecular target: T8, human vascular endothelial growth factor (hVEGF) (human, UniProt P15692-4 27-191)
# T8 construct: also called hVEGF-A; human vascular endothelial growth factor A
# Experiment: ELISA on immobilised protein
row,Binder,binding result
1,B3,no binding (tested: 100 or 500 nM (text))
2,B4,no binding (tested: 100 or 500 nM (text))

# Molecular target: bovine serum albumin (BSA) (bovine, UniProt P02769 25-607)
# Experiment: ELISA on immobilised protein
row,Binder,binding result
1,B3,no binding (tested: 100 or 500 nM (text))
2,B4,no binding (tested: 100 or 500 nM (text))

# Molecular target: T3, hVEGF109
# Experiment: Biacore SPR
row,Binder,Kd
1,B5,3930 nM

# Molecular target: T6, HER2 extracellular domain (Her2-ECD)
# Experiment: Biacore SPR
row,Binder,Kd
1,B6,59 nM
2,B5,8 nM

# Molecular target: T3, hVEGF109
# Experiment: single-spot competitive phage ELISA
Binder,"% signal, SSC +/- 50 or 100nM VEGF",OD450 without competitor
B7,81.3%,2.23
B8,95.7%,2.82
B9,88.2%,3.08
B10,85.6%,2.12
B11,85.1%,2.9
B12,85.8%,1.05

# Molecular target: T6, HER2 extracellular domain (Her2-ECD)
# Experiment: single-spot competitive phage ELISA
row,Binder,OD450 without competitor
1,B7,0.04
2,B8,0.04
3,B9,0.05
4,B13,0.05
5,B14,0.05
6,B10,0.04
7,B11,0.07
8,B12,0.05

# Molecular target: T3, hVEGF109
# Experiment: ELISA on immobilised target
row,Binder,binding result
1,B3,no binding (tested: 100 nM (text))
2,B4,no binding (tested: 100 nM (text))

# Molecular target: T9, hVEGF165 (human, UniProt P15692-4 27-191)
# T9 construct: also called human VEGF165
# Experiment: ELISA on immobilised target
row,Binder,binding result
1,B3,no binding (tested: 100 nM (text))
2,B4,no binding (tested: 100 nM (text))

# Molecular target: T4, murine VEGF (mVEGF)
# Experiment: ELISA on immobilised target
row,Binder,binding result
1,B3,no binding (tested: 100 nM (text))
2,B4,no binding (tested: 100 nM (text))

# Molecular target: T6, HER2 extracellular domain (Her2-ECD)
# Experiment: competition ELISA of phage-displayed Fab
row,Binder,IC50
1,B15,2.6 nM
2,B16,3.1 nM
3,B17,2.2 nM
4,B18,3.8 nM
5,B19,3.5 nM
6,B20,1.4 nM
7,B21,0.4 nM
8,B22,0.6 nM
9,B23,1.1 nM
10,B24,1.7 nM
11,B25,7.1 nM
12,B26,0.7 nM
13,B27,2.2 nM
14,B28,4.3 nM
15,B6,2.1 nM
